Data published in publication PMC7374565 (Nature Communications, 2020).

Key:
[1] = target: intrinsically disordered domain of avian ANP32A (amino acids 149-281) (Gallus gallus); assay: NMR titration; settings: both partners purified
[2] = target: intrinsically disordered domain of human ANP32A (amino acids 144-249) (human, UniProt P39687 144-249); assay: NMR titration; settings: both partners purified
intrinsically disordered domain of human ANP32A (amino acids 144-249), sequence (P39687 144-249): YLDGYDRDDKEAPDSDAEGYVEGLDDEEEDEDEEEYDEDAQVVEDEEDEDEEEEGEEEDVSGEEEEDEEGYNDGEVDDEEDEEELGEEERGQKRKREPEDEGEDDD

B1: 627 domain of PB2 (E627), amino acids 538-693 (domain or fragment)
chain: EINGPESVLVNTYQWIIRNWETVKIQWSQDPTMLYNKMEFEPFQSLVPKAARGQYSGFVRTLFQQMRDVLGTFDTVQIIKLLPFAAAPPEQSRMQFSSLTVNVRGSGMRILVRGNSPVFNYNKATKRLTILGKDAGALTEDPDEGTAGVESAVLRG
- KD of the individual sites (tightest) [1]: ≥ 1.7 mM
- Kd [1]: > 0.6 mM
- KD of the individual sites [2]: > 1.4 mM
